Test results taken from the supplement of paper PMC10567573.
± gives the standard deviation.

Assay: protein stability index of a GFP-peptide fusion (GPS, HEK-293T) (PSI 1-6); higher = more stable
[1] = treatment: DMSO, c terminus: a fixed tail appended
[2] = treatment: MLN4924 1 uM, 8 h, c terminus: a fixed tail appended
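Also: 24-mer peptide tiles fused after GFP, lentivirally expressed, FACS-sorted into six equal bins by GFP/DsRed ratio, decoded by Illumina sequencing, PSI is the read-weighted mean bin number.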

Sequence	protein stability index [1]	protein stability index [2]	protein stability index (treatment: DMSO, c terminus: native)	protein stability index (treatment: MLN4924 1 uM, 8 h, c terminus: native)
SGGGRDSSSSILRWLPEKRANPCL [ELOA2]	3.11 ± 0.26	3.47 ± 0.17	–	–
DNPFGIYQKILAGKIDFPRHLDFH [PRKX]	2.1 ± 0.33	2.23 ± 0.28	–	–
PFREILCKKLHIPLKAQNDLDISR [P2RY14]	2.39 ± 0.12	2.46 ± 0.29	–	–
PWGVQGGQESEVPYKREEEALEER [PKD2L1]	5.16 ± 0.37	5.56 ± 0.19	–	–
MVKPLLHMLLNTTLNIKETDSKEL [ZBED1]	2.13 ± 0.58	2.24 ± 0.38	–	–
ECGKAFSQNSSLVQHERIHTGDKP [ZNF8]	4.49 ± 0.33	4.48 ± 0.15	–	–
SHLQWQESRLKRSNPLAREIFRRH [ZSCAN9]	3.18 ± 0.29	3.35 ± 0.27	–	–
WFESVLEPGYIDSEIGTSDQIVPE [TRIB1]	4.44 ± 0.2	4.09 ± 0.18	–	–
LSQLSSHDPLWRRHCKKYWLISEE [FBXO3]	2.54 ± 0.069	2.67 ± 0.4	–	–
LSLCICGTAITSQYLAERYKVNTP [SLC35F2]	2.83 ± 0.51	2.63 ± 0.42	–	–
ADFEQKMLDSALRFQAMEETHLRH [FCHO1]	3.88 ± 0.29	3.93 ± 0.24	–	–
PPRSDTIANYELVYKDGEHGEEQR [PTPRD]	5.48 ± 0.21	5.57 ± 0.14	–	–
EEPVFEAVINWVKHAKKEREESLP [KLHL12]	4.16 ± 0.48	4.17 ± 0.28	–	–
KPSGALGSESYKSSAGSAEQTAPG [EHMT1]	5.26 ± 0.39	5.43 ± 0.22	–	–
IREALHELLCCTNVSTKEGIHLAL [INTS4]	2.41 ± 0.46	2.48 ± 0.3	–	–
LSPVLESPRDLQFSEIRETSAKVN [TNXB]	4.9 ± 0.12	5.02 ± 0.34	–	–
VTQREHSSEHVTESVADLLALEEP [SLC6A17]	5.3 ± 0.47	5.12 ± 0.3	–	–
ALRQTVEADVNGLRRVLDELTLAR [KRT16]	3.18 ± 0.58	3.06 ± 0.33	–	–
AAQSTKSPWNFLGDELYEQSDEEQ [CLPTM1]	5.25 ± 0.19	5.35 ± 0.18	–	–
IITVTLNMEKYNFLGISIVGQSNE [DVL3]	3.15 ± 0.69	3.04 ± 0.4	–	–
EDYPAALPNHKPKGTFKDYVRDRA [ETS1]	4.57 ± 0.1	4.62 ± 0.32	–	–
PVPEQSALCQGLYFHINQTLREAH [FAM104A]	2.46 ± 0.21	2.77 ± 0.28	–	–

Sequence	protein stability index [1]	protein stability index [2]	protein stability index (treatment: DMSO, c terminus: native)	protein stability index (treatment: MLN4924 1 uM, 8 h, c terminus: native)
PHFQPDASLLQPVTPLGTSRWRKI [NCF4]	3.58 ± 0.3	3.73 ± 0.17	–	–
SCPGSSYRTVVRPTYKVMYKIVTA [EMID1]	2.37 ± 0.53	2.22 ± 0.26	–	–
SQGLAREQHAGTSEGLHLAGTAGH [FBF1]	4.76 ± 0.16	4.84 ± 0.36	–	–
SLQNSLECAMETTEEQTRQERQGP [NECAB1]	5.09 ± 0.17	5.22 ± 0.25	–	–
DSGVGKSNLLSRFTRNEFNLESKS [RAB11A]	4.03 ± 0.11	4.08 ± 0.21	–	–
VLVEKYGWPHEDAAQFTDFLIPML [SRPK2]	2.38 ± 0.26	2.4 ± 0.26	–	–
MVHVARLLLLLLTFFLRTDAETPP [PTPRD]	2.91 ± 0.44	2.95 ± 0.44	–	–
EGRPGAATFHVGGGPAQNAPHQQP [TFE3]	4.79 ± 0.17	4.8 ± 0.24	–	–
QLATSSFLLFLLTGIVSVAFLLLP [MOSPD3]	3.5 ± 0.19	2.88 ± 0.54	–	–
AENLDVKINENVAAGMRFPLPEAI [PCDHGA10]	4.29 ± 0.2	4.28 ± 0.15	–	–
REEEEQVRAHAPRGNAPPRGKGL [KCNG1]	–	–	3.15 ± 1.3	3.68 ± 0.65
LTGVLCSYPNPNEDKCPGNYTNPL [TMEM192]	3.26 ± 0.19	3.36 ± 0.25	–	–
SIALRNISLAKGPPGPKGDQGDEG [SCARA5]	4.68 ± 0.09	4.86 ± 0.2	–	–
MQALEIELQSQLSMKASLEGNLAE [KRT17]	3.59 ± 0.19	3.45 ± 0.42	–	–
PNNKEIPSHHPTDPVELRRLNFQT [PTPRD]	4.15 ± 0.18	4.35 ± 0.081	–	–
LPPNNSYADFERFSKVLEEAAAAE [DAPK3]	4.95 ± 0.57	5.07 ± 0.058	–	–
ENVVHGHILAAEQLSRDSTLGGKA [NSDHL]	4.52 ± 0.11	4.6 ± 0.3	–	–
LKKSSQVPRTEAPAPASSTPQEPW [PDLIM7]	4.74 ± 0.3	4.76 ± 0.46	–	–
YDPKTNQWSSDVAPTSTCRTSVGV [KLHL20]	2.86 ± 0.44	3.04 ± 0.19	–	–
TKRDSFLKRLYRAPIDWIEEYTTG [ALG2]	2.18 ± 0.54	2.23 ± 0.4	–	–
SRVAGFNPALQLILTRTDKTLNKK [TOR1AIP2]	4.25 ± 0.3	4.33 ± 0.18	–	–
VAVQEQEIARREKELEARVRKPAE [FLOT1]	5.44 ± 0.42	5.31 ± 0.17	–	–
